Results on 51 molecules are retold here after patent US20230137562A1, “TAU AGGREGATION INHIBITORS” (priority 2017, published 2023).

Sequences and labels used below:
B1: WKIHIWWR (peptide)
peptide: WKIHIWWR
B2: WYRIWIRW (peptide)
peptide: WYRIWIRW
B3: WRIRIAW (peptide)
peptide: WRIRIAW
B4: WIRIRIW (peptide)
peptide: WIRIRIW
B5: IRLWVW (peptide)
peptide: IRLWVW
B6: WRIRIRH (peptide)
peptide: WRIRIRH
B7: WRIRLRYW (peptide)
peptide: WRIRLRYW
B8: KWWIRIRYW (peptide)
peptide: KWWIRIRYW
B9: RIRLWIW (peptide)
peptide: RIRLWIW
B10: ERIRIRW (peptide)
peptide: ERIRIRW
B11: WRIRLWYW (peptide)
peptide: WRIRLWYW
B12: RIRIRWW (peptide)
peptide: RIRIRWW
B13: IWIRYW (peptide)
peptide: IWIRYW
B14: WRLWFWWR (peptide)
peptide: WRLWFWWR
B15: ERIWIRYW (peptide)
peptide: ERIWIRYW
B16: RIRLEWW (peptide)
peptide: RIRLEWW
B17: LKIHIRHW (peptide)
peptide: LKIHIRHW
B18: RIRIFIW (peptide)
peptide: RIRIFIW
B19: WRIRIRF (peptide)
peptide: WRIRIRF
B20: WRFRLYLR (peptide)
peptide: WRFRLYLR
B21: WKLKLRWW (peptide)
peptide: WKLKLRWW
B22: WWIRIRYWK (peptide)
peptide: WWIRIRYWK
B23: WRIRLWYR (peptide)
peptide: WRIRLWYR
B24: WRIRLRW (peptide)
peptide: WRIRLRW
B25: ARIWIRYW (peptide)
peptide: ARIWIRYW
B26: WRIRARW (peptide)
peptide: WRIRARW
B27: RIRIWVW (peptide)
peptide: RIRIWVW
B28: IRLWIW (peptide)
peptide: IRLWIW
B29: FRIWIRYF (peptide)
peptide: FRIWIRYF
B30: WRIWIRLW (peptide)
peptide: WRIWIRLW
B31: WWIRIRYWR (peptide)
peptide: WWIRIRYWR
B32: RIWIRIW (peptide)
peptide: RIWIRIW
B33: WRIRWRYW (peptide)
peptide: WRIRWRYW
B34: RIRIRW (peptide)
peptide: RIRIRW
B35: WLKVQVRLW (peptide)
peptide: WLKVQVRLW
B36: WRIWIR (peptide)
peptide: WRIWIR
B37: RIRIAIW (peptide)
peptide: RIRIAIW
B38: WAIRIRW (peptide)
peptide: WAIRIRW
B39: RIRVWIF (peptide)
peptide: RIRVWIF
B40: IWIRLW (peptide)
peptide: IWIRLW
B41: WWIRIRYW (peptide)
peptide: WWIRIRYW
B42: WRIRIRA (peptide)
peptide: WRIRIRA
B43: ARIRIRW (peptide)
peptide: ARIRIRW
B44: RIWIRVW (peptide)
peptide: RIWIRVW
B45: IWLRLW (peptide)
peptide: IWLRLW
B46: FRIRIKHY (peptide)
peptide: FRIRIKHY
B47: WRARARW (peptide)
peptide: WRARARW
B48: RIRILIL (peptide)
peptide: RIRILIL
B49: RIHIFFW (peptide)
peptide: RIHIFFW
B50: IRIWIW (peptide)
peptide: IRIWIW
B51: KIRLYWW (peptide)
peptide: KIRLYWW

Values joined by “and” are separate entries in the source; they are usually repeats but may differ in a detail not shown here. Identical values can stand only once.

Chain of His-Tau40P301L Tau (P10636 other isoform, or with tags, fused parts or gaps limits assumed): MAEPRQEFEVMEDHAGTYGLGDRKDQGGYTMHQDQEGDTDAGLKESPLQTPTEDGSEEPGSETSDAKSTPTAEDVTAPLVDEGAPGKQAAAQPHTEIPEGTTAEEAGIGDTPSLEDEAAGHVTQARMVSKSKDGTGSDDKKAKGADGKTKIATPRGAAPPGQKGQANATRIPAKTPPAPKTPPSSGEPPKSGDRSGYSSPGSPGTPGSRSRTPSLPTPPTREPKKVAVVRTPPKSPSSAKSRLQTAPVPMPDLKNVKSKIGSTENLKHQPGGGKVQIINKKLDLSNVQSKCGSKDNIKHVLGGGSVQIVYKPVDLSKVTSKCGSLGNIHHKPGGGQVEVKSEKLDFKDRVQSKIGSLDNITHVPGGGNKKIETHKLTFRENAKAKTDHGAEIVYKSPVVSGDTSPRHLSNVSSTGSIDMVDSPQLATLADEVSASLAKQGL

The first experiment addresses His-Tau40P301L Tau (UniProt P10636-8 1-441). Description: cell-based or functional assay.
Take B1: the “IC50 (µM), Tau40 assay (ThT)” value is 5.75 µM.
Same read-out and setting: for B2 the value was 0.96 µM and 1 µM and 1.73 µM; for B3, 4.72 µM.
As for B4, the “IC50 (µM), Tau40 assay (ThT)” value is 2.03 µM and 2.04 µM.
Still for that read-out and setting: for B5 the value was 8.77 µM; for B6, 4.44 µM.
Same read-out and setting: for B7 the value was 1.02 µM and 1.32 µM.
On the same count and under the same terms, the result for B8 reads 4.62 µM and 7.02 µM; that for B9, 7.07 µM.
B10: the “IC50 (µM), Tau40 assay (ThT)” value turned out to be 12.2 µM.
The same measure, in the same setting: the result for B11 reads 0.68 µM; that for B12, 4.57 µM; that for B13, 4.05 µM.
As to B14, the “IC50 (µM), Tau40 assay (ThT)” value was 1.82 µM.
On the same count and under the same terms, for B15 the value was 5.33 µM; for B16, 9.8 µM; for B17, 3.79 µM.
On the same count and under the same terms, the result for B18 reads 3.94 µM; that for B19, 10.8 µM.
On the same count and under the same terms, for B20 the value was 47 µM; for B21, 2.06 µM; for B22, 1.02 µM and 1.12 µM.
B23: the “IC50 (µM), Tau40 assay (ThT)” value was 1.31 µM.
On the same count and under the same terms, the result for B24 reads 0.9 µM and 0.97 µM.
For the molecule B25, the “IC50 (µM), Tau40 assay (ThT)” value was found to be 4.08 µM.
On the same count and under the same terms, for B26 the value was 8.01 µM; for B27, 7.07 µM; for B28, 9.6 µM.
On the same count and under the same terms, the result for B29 reads 4 µM.
The same measure, in the same setting: for B30 the value was 7.32 µM; for B31, 1.48 µM and 1.58 µM; for B32, 6.47 µM.
Consider B33, for which the “IC50 (µM), Tau40 assay (ThT)” value was 0.42 µM and 0.41 µM.
For the molecule B34, the “IC50 (µM), Tau40 assay (ThT)” value is 10.9 µM.
Regarding B35, the “IC50 (µM), Tau40 assay (ThT)” value was determined as 1.86 µM.
On the same count and under the same terms, the result for B36 reads 7.22 µM.
Consider B37, for which the “IC50 (µM), Tau40 assay (ThT)” value is 4.14 µM.
Still for that read-out and setting: the result for B38 reads 1.72 µM; that for B39, 6.53 µM and 6.89 µM; that for B40, 11.4 µM.
Same read-out and setting: the result for B41 reads 1.1 µM and 1.38 µM; that for B42, 8.31 µM.
Same read-out and setting: for B43 the value was 4.19 µM; for B44, 6.36 µM.
As for B45, the “IC50 (µM), Tau40 assay (ThT)” value worked out at 9.93 µM.
The same measure, in the same setting: the result for B46 reads 9.45 µM.
On the same count and under the same terms, the result for B47 reads 12 µM; that for B48, 2.15 µM; that for B49, 4.4 µM.
Same read-out and setting: for B50 the value was 6.77 µM.
As for B51, the “IC50 (µM), Tau40 assay (ThT)” value worked out at 5.73 µM.

The next experiment concerns the target T1, Ac-VQIINK-NH2.
T1 peptide: Ac-VQIINK-NH2
Description: cell-based or functional assay.
As to B1, the “IC50 (µM), VQIINK Inhibition (ThT)” value stood at 2.01 µM.
Same read-out and setting: for B2 the value was 2.02 µM and 3.69 µM.
Regarding B3, the “IC50 (µM), VQIINK Inhibition (ThT)” value was 6 µM.
Same read-out and setting: the result for B4 reads 0.81 µM and 1.72 µM.
Still for that read-out and setting: for B5 the value was 1.63 µM; for B6, 11.6 µM; for B7, 4.13 µM.
Turning to B8, the “IC50 (µM), VQIINK Inhibition (ThT)” value is 1.8 µM.
The same measure, in the same setting: for B9 the value was 4.63 µM; for B10, 5.98 µM.
Still for that read-out and setting: for B11 the value was 1.98 µM.
B12: the “IC50 (µM), VQIINK Inhibition (ThT)” value was 10.2 µM.
With B13, the “IC50 (µM), VQIINK Inhibition (ThT)” value is 5.43 µM.
B14: the “IC50 (µM), VQIINK Inhibition (ThT)” value amounted to 1.19 µM.
On the same count and under the same terms, for B15 the value was 6.19 µM.
On the same count and under the same terms, the result for B16 reads 3.89 µM; that for B17, 3.05 µM; that for B18, 1.57 µM.
Still for that read-out and setting: for B19 the value was 42.8 µM.
On to B20, for which the “IC50 (µM), VQIINK Inhibition (ThT)” value stood at 2.81 µM.
Take B21: the “IC50 (µM), VQIINK Inhibition (ThT)” value came to 0.82 µM.
Same read-out and setting: the result for B22 reads 1.89 µM; that for B23, 1.7 µM.
On the same count and under the same terms, for B24 the value was 4.04 µM.
The same measure, in the same setting: the result for B25 reads 3.14 µM; that for B26, 4.07 µM; that for B27, 2.3 µM.
As for B28, the “IC50 (µM), VQIINK Inhibition (ThT)” value came out at 1.83 µM.
Still for that read-out and setting: for B29 the value was 4.64 µM.
With B30, the “IC50 (µM), VQIINK Inhibition (ThT)” value came out at 3.97 µM.
Take B31: the “IC50 (µM), VQIINK Inhibition (ThT)” value amounted to 1.79 µM.
Regarding B32, the “IC50 (µM), VQIINK Inhibition (ThT)” value turned out to be 3.17 µM.
As to B33, the “IC50 (µM), VQIINK Inhibition (ThT)” value worked out at 3.46 µM.
The same measure, in the same setting: the result for B34 reads 10.8 µM; that for B35, 1.71 µM; that for B36, 11.8 µM.
The same measure, in the same setting: the result for B37 reads 1.8 µM; that for B38, 1.94 µM.
Same read-out and setting: for B39 the value was 2.8 µM; for B40, 2.12 µM; for B41, 1.92 µM.
As to B42, the “IC50 (µM), VQIINK Inhibition (ThT)” value amounted to 8.28 µM.
Consider B43, for which the “IC50 (µM), VQIINK Inhibition (ThT)” value turned out to be 2.72 µM.
On the same count and under the same terms, for B44 the value was 2.14 µM; for B45, 2.29 µM.
On the same count and under the same terms, for B46 the value was 3.61 µM; for B47, 29.1 µM; for B48, 1.64 µM.
The same measure, in the same setting: for B49 the value was 1.95 µM; for B50, 2.94 µM.
As for B51, the “IC50 (µM), VQIINK Inhibition (ThT)” value stood at 2.86 µM.
